Assay results taken from PMC3929599.

How the values were obtained:
[1] = target: mEGFP-labelled WASp (reciprocal tagging) (Drosophila); test: FRET or BRET; FLIM-FRET, pixel-resolution 'Interaction' in the CNS of live Drosophila embryos at hours 15 and 21, and Polarplot estimate of the percentage of donor molecules undergoing FRET (hour not told for the percentages)
[2] = target: mCherry::WASp (Wiskott-Aldrich Syndrome protein labelled with mCherry at its amino terminus) (Drosophila); test: as above
Chain of mCherry::WASp (Wiskott-Aldrich Syndrome protein labelled with mCherry at its amino terminus) (Drosophila) (main, as listed by the source): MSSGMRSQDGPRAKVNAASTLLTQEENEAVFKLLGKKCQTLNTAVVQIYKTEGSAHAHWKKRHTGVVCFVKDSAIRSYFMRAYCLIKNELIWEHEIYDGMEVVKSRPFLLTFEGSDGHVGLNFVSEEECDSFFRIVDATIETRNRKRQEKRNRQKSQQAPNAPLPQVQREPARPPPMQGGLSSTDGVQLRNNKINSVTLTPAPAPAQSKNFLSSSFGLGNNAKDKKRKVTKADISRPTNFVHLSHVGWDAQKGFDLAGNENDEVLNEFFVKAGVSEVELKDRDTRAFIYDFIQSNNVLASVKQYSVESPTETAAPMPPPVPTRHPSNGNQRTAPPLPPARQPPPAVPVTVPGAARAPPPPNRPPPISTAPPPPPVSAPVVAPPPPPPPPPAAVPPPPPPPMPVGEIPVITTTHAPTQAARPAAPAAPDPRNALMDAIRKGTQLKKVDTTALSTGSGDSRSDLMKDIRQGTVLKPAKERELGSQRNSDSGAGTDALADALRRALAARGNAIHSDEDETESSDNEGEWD

[3] = target: WASp labelled with mCherry at its carboxyl terminus (Drosophila); test: FRET or BRET; FLIM-FRET (3D frequency-domain FLIM): mean mEGFP donor fluorescence lifetime in a CNS segment of live whole Drosophila embryos at hour 15; both proteins expressed in all neurons under elav-GAL4; baseline lifetime without FRET 2.56 ns; 10-20 embryos for each experiment
Chain of WASp labelled with mCherry at its carboxyl terminus (Drosophila) (main, as listed by the source): as above

[4] = target: mCherry::WASp (Wiskott-Aldrich Syndrome protein labelled with mCherry at its amino terminus) (Drosophila); test: as above

Chain of mEGFP-labelled WASp (reciprocal tagging) (Drosophila) (main, as listed by the source): as above

| fraction of WASp interacting with Cdc42 [1] [%] | fraction of Cdc42 interacting with WASp [2] [%] | mean donor (mEGFP) fluorescence lifetime [3] [ns] | mean donor (mEGFP) fluorescence lifetime [4] [ns] | Substance |
| --- | --- | --- | --- | --- |
| 30 |  |  |  | mCherry-labelled Cdc42 (reciprocal tagging) (from UniProt P40793 1-191) (natural protein) |
|  | 10 | 2.44 | 2.45 | mEGFP::Cdc42 (cell division control protein 42 homolog labelled with mEGFP) (from UniProt P40793 1-191) (natural protein) |
